Experimental data: the nanobody polyreactivity screen of Harvey et al. (2022)

Experiment: yeast display, Sf9 membrane polyspecificity reagent, FACS + sequencing; frameworks hold sequencing errors
Summary of the method: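 Polyreactivity labels are assigned by the sorting gate from which each nanobody was recovered. The gates were low and high (top ~1%), set on anti-HA fluorescence for expression and streptavidin fluorescence for reagent binding. Before sorting, galactose-induced (36–48 hours) yeast display cells were stained for 1 hour at 4 °C with 10% biotinylated, detergent-solubilized Sf9 membrane reagent.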

Sequence | polyreactivity (PSR sort gate)
QVQLVESGGGLVQAGGSLRLSCAASGRIIRSNVMGWYRQAPGKERDLVAGISRSGGSTYYADSVKGRFTISRDNAKNTVYLKMNSLKPEDTAVYYCNAGWWYLGSPFDRDYWGQGTQVTVSS | high polyreactivity
QVQLVESGGGLVQAGGSLRLSCAASGLTFGDYVMGWYRQAPGKERELVATITSDGGTTYADSVKGRFTISRDNAKNTVYLQMNSLKPEDTAVYYCAAGVTGPSDDYDYWGQGTQVTVSS | low polyreactivity
QVQLVESGGGLVQAGGSLRLSCAASGSTFDGNAMGWYRQAPGKERELVAAITYTTSSTYYADSVKGRFTISRDNAKNTVYLQMNSLKPEDTAVYYCAADASYLPYPLPGTEYEYWGQGTQVTVSS | low polyreactivity
QVQLVESGGGLVHAGGSLRLSCAASGSTFIYNAMGWDRQAPGKERELVAAITWNGGSTYYADSVKGRFTLSRDIAKNTVYLQMISLNPEDTAVYYCAVDKGSQPHYDYWGQVTQVTVSS | low polyreactivity
QVQLVESGGGLVQAGGSLRLSCAASGRTFRGNAMGWDRQAPVKERELVAAITWGVGSTYYADSVKGRFTISRDNAKNTVYLQMNSLKPEDTAVYYCATRSYRGRDGFGYWGQGTQVTVSS | high polyreactivity
QVQLVESGGGLLQAGGSLRLSCAASGPTFAYYAMGWYRQATGKERELVAAIDSSGGSTYYADSVKGRFTISRDNSNNSVYLQMNSLKPEDTAVNYCAASYPYDRYDQGGFGYWGQGTQVTVSS | low polyreactivity
QVQLVESGGGLVQAGGSLRLSCAASGLTFPYYSMGWYRQAPGKERVLVAAITKSGGSTYADSVKGRFTISRDNAKNTVYLQMNSLKPEDTAVYYCAAGRRKYGTKGRGDYWGQGTQVTVSS | low polyreactivity
QVQLVESGGGLVQAGGSLRLSCAASGRIFKRYAMGWYRQAPGKERELVAAITRGGSTNYADSVKGRFTISRDNAKNSVYLQMYSLKPEYTAVYYCAATTSRPYRSRYYYWGQGTQVTVSS | high polyreactivity
QVQLVESAGGLVQAGGSLRLSCAASGSILPSNAMGWYRQATGKERELVAGLSERGSSTYYADSVKGRFTISRDNAKNTVYLQMNSLKPEDTAVYYCAADDVGRYWSSTHNWARGEYWGQGTHVTVSS | low polyreactivity
QVQLVESGGGLVQAGVSLRLSCAASGYIIIVYTMGWYRQAPGKERELVAAISSGGITDYADSVKGRFTISRDNAKNTVYLQMNSLKPEDTAVYYWGQGTQVTVSS | low polyreactivity
QVQLVESGGGLVQAGGSLRLSCADSGITFYGSAMGWYRQAPGQERELVAAISKSGGSTHYADSVKGRFTISRDNAKNTVYLQMNSLKPEDTAVYYCAAAYWTRLRRMDYWGQGTQVTVSS | low polyreactivity
QVQLVESGGGLVHAGGSLSLICAASGITFDVNAMGWYRQAPGKERELVAAITAGGNTYYADSVKGRFTISRDNAKNTVYLQMNSLKPEDTAVYYCAAVSTSLYWAGYDYWGQGTKVTVSS | low polyreactivity
QVQLVESGGGLVQAGGSLRLSCAASGFIFSRYAMGWARQAPGKERELVAAIRFSGSMTYYADSVKGRFTISRDTAKNTVYLQMNSLKPEDTAVYYCAAALTYFKRVYYWGQGTQVTVSS | high polyreactivity
QVQLVESGGGLVQAGGSLRLSCAASGITFAYKAMGWYRQAPGTERELVARITSGGRTYYSDSVKARFTISRDNAMNTVYLQMNSLKPEDTAVYYCNAKEGSRYRKYDYWGQGTQVTVSS | low polyreactivity
QVQLVESGGGLVQAGGSLRLSCADSGFTFSSYAMGWYRQAPGKDRELVAAISTRGGSTYYADSVKGRFTISRDYANKTVYLQMNSLKPEDTAVYYCATGGRGGRRYEYWGQGTQVTVSS | low polyreactivity
QDQLVESGGGLVQAGGSRRLSCAASGSIFIYAMGWYRQAPGNERELVATIDSGGSTNYADSVKGRFTISRDNAKNTFYLQMNSLKPEDTAVYYFAARPYTTYHYVDDYWGQGTQVTVSS | high polyreactivity
QVQLVESGGGLVQAGGSLRLSCAASGLIFYAYAMGWYRQAPGKEREFVAAINNSGGRTYYADSVKGRFTISRDNAKNTVYLQMYSLKPEDTAVYYCAVYSYYRRTYRREMDYWGQGTQVTVSS | high polyreactivity
QVQLVESGGGLVQAGGSLRLSCAASGFTLNGYAMGWYRQAPGKERELVAAISSSGGRTYYADSVKGRFTISRDNAKNTVYLQMNCLKPEDTAVYYCAAVVYYEDGYWGQGTQVTVSS | low polyreactivity
QVQLVESGGGLVQAGGSLRLSSAASGITFKYYVMGWYRQAPGKEREFVAAISWGGGSTYYADSVKGRFTISRDNAKITVYLQMNSLKPEDTAVYYCATSHGLYTRWYDYWGQGTQVTVSS | high polyreactivity
QVQLVESGGGLVQAGGSLRLSCAASGITFFAYAMGWYRQPPGKERELVAAISSGGSTNYADSVKGRFTISRDNAKNTVYLQMNSLKPEDTAVYYCAAVRSDLGEEGYAGYVYWGQGTQVTVSS | low polyreactivity
QVQLVESGGGLVQAGGSLRLSCAASGRTFNVYAMGWYRQAPGKERELVAVITNGGSTNYADSVKGRFTISRDNAKNTVYLQMNSLKPEDTAVYYCAADYYASLTREDRDDYWGQGTQVTVSS | low polyreactivity
QVQLVESWGGLVQSGGSLRLSCAASGSIFSFYPMGWYRQAPGKERELVAAISSGGSTYYADSVKGRFTISRDNAKNTVYLQMNSLKPEDTAVYYCAADQHIRVSWYLQMYYWGQGTQVTVSS | low polyreactivity

Sequence | polyreactivity (PSR sort gate)
QVQLGESGGGLVQAGGTLRLSCAAYGFIFGIYDMGSYRQAPGKERELVAAITWDGDTTYYADSVKGRFTISRDNAKNTVYLQMNSLKPEDTAVFYCAVDDSRAYPRPYHWVEYYYWGQGTQVTVSS | low polyreactivity
QVQLVESGGGLVQAGGSLRLSCAASGLTFGAYAMGWYRQAPGKEREFVAAITYSGGSTNYADSVKGRFTISRDNAKNTVYLQMISLKPEDTAVYYCNAGYYSPWAFYPYDYWGQGTQVTVSS | high polyreactivity
QVQLVESGGGLVQAGGILRLSCAASGFTFGPNTMGWNRQAPGKERELVAAISRSGGSTYYADSVKGRFTISRDNAKNTVYLQMNSLNPEDTAVYYCAAYSPLSGGRMDYWGQGTQVNVSS | high polyreactivity
QVQLVESGGGLVQAGGRLRLSCAASGRTFGPNVMGWYRQAPGKERELVAAITSGGTTYYADSVKGRFTISRDNAKNTVYLQMTSLIPADTAVYYCAATFYPYQVHHYYYWGQGTQVTVSS | low polyreactivity
QVQLVESGGGLVQAGGSLRLSCAASGSTFVRNAMGWYRQAPGKERELVAAIRWRSGSTYYADSVKGRFTISRDNAKNTVYLQMNSLKPEDTAVYYCAVDYNSFRYGPLGYWGQGTQVTVSS | high polyreactivity
QVQLVESGGGLVQAGGSLRLSCAASGSIFLRNAMGWSRQAPGKERELVAAISRSGGRTYYADSVKGRFTISRDNAKNTVYLQMNSLKPEDTAVYYCAADWADKYTGRYDYWGQGTQVTVSS | high polyreactivity
QVQLVESGGGLVLAGGRLRLSCAASGRNFYGYAMGWYRQAPGKERELVAAISYGGGSTYYADSVKGRFTISRDNAKKTVYLQMNSLKPEDTAVYYCNDFSAYMGQYGYWGQGTQVTVSS | high polyreactivity
QVQLVESGGGLVQAGGSLRLSSAASGITFITYAMVWYRQAPGKERELVAAISSSGGSTYYADSVKGRFTFSRDNAKNTVYLKMNSLKPEDTAVYYCAAEYVWYFGWKYGYWGQGTQVTVSS | high polyreactivity
QVQLVESGGGLVQAAGSLRISCAASGLIFGWNAMGWYRQAPGKERELVAAITSGGSTYYADSVKGRFTISRDNAKNTVYLQMNSLKPEDTAVYYCAAVYVLGKTGRVYGKYGYWGQGTQVTVSS | high polyreactivity
QVQHVESGGGLVQAGGSLRLSSAASGLTFYHYTMGWYRQAPGKERELVAAITKNGGSTYYADSVKGRFTISRDNAKNTVYLQMNSLKPEDTAVYYCNVGPRRVDRSRAASSDYDYWGQGTQVTVSS | high polyreactivity
QVQLVESGGALVQAGGSLRLSCAASGSIFSSYAMGWYRQAPGKERELVAAISGSGDSTYYADSVKGRFTISRDNAKNTVYLQMNSLKPEDTAVYYCNAVYAFNGYDYWGQGTQVTVSS | low polyreactivity
QVQLVESGGGLVQAGGSLRLSCAASGRTFAGYVMGWYRQAPGKERELVAAISTSGGSTYYADSVKGRFTISRDNAKNTVYLQMNSLKPEDTAVYYCNVYLKHRYYNQMDYWGQGTQVTVSS | high polyreactivity
QVQLVESGGGLVQAGGSLRLSCAASGFTFRYYAMGWYRQAPGKERELVATITSGGRTYYADSVKGRFTISRDNAKNTVYLQMNSLKPEDTAVYYCAADVWYVRTKYGYDYWGQGTQVTVSS | high polyreactivity
QVQLVESGGGLVQAGGSLRFSCGGWGSISEVYAMGWYRPAPGKERELVAAITSGASTNYADSVNGRFTISRDNAKNTVYLQMNSLKPEDTAVYYCAADSDSQWGMDYWGQGTQVTVSS | low polyreactivity
QVQLVESGGRLVQAGGSIRLSCAASGRTFYTNAMGWYRQAPGKERELVAAISSGGSTYYADSVKGRFTISRDNAKNTVYLQMNSLKPEDTAVYYCNVRRGGWGYRYYYWGQGTQVTVSS | high polyreactivity
QVQLVEAGGGLVQAGGSLRLSCAASGRTFTYYTMGWYRQAPGKERELVATITSGGITNYADSVKGRFTISRDNAKNTVYLQMNSLKTEDTAVYYCDKRWVNKYYYWGQGTQVTVSS | high polyreactivity
QVQLVESGRGLVQAGGSLRLSCAASGSIFSYYAMGWYIQAPGKERELVAAITVRGGSTYYADSVKGRFTISRDNAKNTVYLQMNSLKPEDTAVYYCAAVPGYTHLWGGPFDYWGQGTQVTVSS | low polyreactivity
QVQLVESGGGLVKAGGSLRLSCAASGSTNDRYAMGLYRQAPGKEREFVAAITKRGGSTYYADSVKGRFTISRDNAKITVYLQMNSLKPEDTAVYYCGARYGRGSAYTEYEYWGQGTQVTVSS | high polyreactivity
QVHLVESGGGLVQAGGILRLSCSASGRIFSVNAMGWYRQSPGKERELVAAITTRGGTTYYADSVKGRFTISRDNAKNTVYLLMNSLKPEDTAVYYCAAESSWYVYWEWAHDYWGQGTQVTVSS | low polyreactivity
QVQLVESGGGLVQAGGSLRLSCAASGRIFARNAMGWSRQAPGKERELVAASSSGGGSTYYADSVKGRFTISRDNAKNTVYLRMISLKPEDTAVYYCAARTRITYDWGQGTQVTVSS | low polyreactivity
QVQLVESGGGLVQAGGSLRLSCAASGSTFVIYTMGWYRQAPVKERELVAAISWSGGITRYADSVKGRFTISRDNAKNTVYLQMNSLKPEDTAVYYCNASQWPSRFDYWGQGTQVTVSS | low polyreactivity
